The source of these data is PMC5457501 (Nature Communications, 2017).

Substitutions are numbered along the chain they refer to. Names and notes keep the numbering of the source. Values joined by “and” are separate entries in the source; they are usually repeats but may differ in a detail not shown here. Identical values can stand only once.

B1: RBM-A peptide (RBM-A_(510-528)) (peptide, UniProt Q96LW4 510-528, looked up)
peptide: DAVWDNGIDDAYFLEATED
notes: source: synthetic peptide (GenScript), HPLC purified
B2: PrimPol RBD RBM-B knockout (480-546 truncation) (domain or fragment, human, UniProt Q96LW4 480-546, looked up)
chain: TTDEADETRSNETQNPHKPSPSRLSTGASADAVWDNGIDDAYFLEATEDAELAEAAENSLLSYNSEV
notes: PrimPol, human, residues 480-546 (RBD without RBM-B); also called PrimPol_(B-KO); RBD_(B-KO); source: E. coli BL21(pLysS), purified (Ni Sepharose, Q Sepharose, gel filtration)
B3: PrimPol RPA-binding domain (PrimPol_(480-560)) (domain or fragment, human, UniProt Q96LW4 480-560, looked up)
chain: TTDEADETRSNETQNPHKPSPSRLSTGASADAVWDNGIDDAYFLEATEDAELAEAAENSLLSYNSEVDEIPDELIIEVLQE
notes: 15N-enriched for one NMR sample; also called PrimPolRBD; RBD; source: E. coli BL21(pLysS), purified (Ni Sepharose, Q Sepharose, Superdex 75)
B4: PrimPol RBD RBM-A knockout (D514R/D518R/D519R) (domain or fragment, human, UniProt Q96LW4 480-560, looked up)
chain: B3 chain with D35R, D39R, D40R
notes: PrimPol, human, RBD residues 480-560 with D514R, D518R, D519R; also called PrimPol_(A-KO); RBD_(A-KO); source: E. coli BL21(pLysS), purified (Ni Sepharose, Q Sepharose, gel filtration)
B5: PrimPol_(514-528) peptide (peptide, UniProt Q96LW4 514-528, looked up)
peptide: DNGIDDAYFLEATED
notes: PrimPol, human, residues 514-528 (RBM-A), 15-mer; also called RBM-A peptide residues (PrimPol_(514-528)); 15-mer PrimPol_(514-528) peptide; source: synthetic peptide (Genscript), used as supplied
B6: RPA70N (RPA70 residues 1-120) (domain or fragment, human, UniProt P27694 1-120, looked up)
chain: MVGQLSEGAIAAIMQKGDTNIKPILQVINIRPITTGNSPPRYRLLMSDGLNTLSSFMLATQLNPLVEEEQLSSNCVCQIHRFIVNTLKDGRRVVILMELEVLKSAEAVGVKIGNPVPYNE
notes: RPA70 (replication protein A 70 kDa subunit), human, N-terminal domain, residues 1-120; pET15b construct; 15N-enriched for some NMR samples; also called RPA70_(1-120); RPA70N domain of RPA70; source: E. coli BL21 (DE3), purified (HisTrap, thrombin cleavage, Superdex 75)
B7: RPA70N^E7R (domain or fragment, human, UniProt P27694 1-120, looked up)
chain: B6 chain with E7R
notes: RPA70, human, N-terminal domain, residues 1-120, with E7R (variant optimised for crystallisation of complexes); source: E. coli BL21 (DE3), purified (HisTrap, thrombin cleavage, Superdex 75)

Holding throughout (conditions): both partners purified
Assay [1] has as its target B6. Nature of the assay: NMR titration; 15N-1H HSQC at 25 C; 100 uM 15N-enriched RPA70N or 15N-enriched PrimPol 480-560 alone and with 200 uM unlabelled partner; 20 mM HEPES pH 7.5, 80 mM NaCl, 2 mM DTT.
The target of assay [2] is B6. Nature of the assay: ITC; MicroCal VP-ITC; 400 uM PrimPol RBD (WT or variants) injected into 20 uM RPA70N; 20 mM HEPES pH 7.5, 80 mM NaCl, 3 mM beta-mercaptoethanol; single-site model. Background: ITC needs no label: the signal is the heat of the interaction.
The target of the assay “RPA70N^E7R” is B7. Briefly: crystal structure; co-crystals by sitting-drop vapour diffusion at 293 K; RPA70N E7R with PrimPol 514-528 peptide (2.5:1 peptide:protein) or with PrimPol 480-560 (1:1).
Assay [3] deals with B3. Briefly: SEC; analytical gel filtration, Superdex S75 10/300 GL, 50 mM Tris-HCl pH 7.5, 100 mM NaCl, 2 mM TCEP; 0.5 ml loaded at 35 uM; binding read from a shift of the peaks. In general terms: In gel filtration, larger molecules generally elute earlier.
The target of assay [4] is B3. Briefly: SEC-MALS; Superdex 75 increase 10/300 GL, 20 mM HEPES pH 7.1, 80 mM NaCl, 0.5 mM TCEP; RBD at 185 uM with RPA70N E7R at 0, 1, 2 and 4 x molar ratios.

Turning to B1, in assay [1], the binding result is given as “binds”.
B2 returned a Kd in assay [2] of 6.7 ± 1.5 µM.
With B3, the binding result (in the assay with RPA70N^E7R; in assay [1]) was “binds” throughout.
The molecule B4 displayed a Kd in assay [2] of 7.8 ± 0.6 µM.
Turning to B5, the binding result with RPA70N^E7R was “binds”.
In the case of B6, the “stoichiometry N” value in assay [3] is 2 RPA70N per PrimPolRBD.
Take B7: in assay [4], the “stoichiometry N” value was 1 RPA70N per PrimPolRBD and 2 RPA70N per PrimPolRBD.

The Kd is a measure of binding affinity in units of concentration. A high value points to weaker binding. Usually stoichiometry N stands for the number of molecules, sites or subunits per partner or assembly.
